From article PMC11903878, “Structural mechanisms for centrosomal recruitment and organization of the microtubule nucleator γ-TuRC” (Nature Communications, 2025)
One block for each molecule: values may come before it.

Legend:
[1] = target: X. laevis 2×FLAG-TEV-NEDD1-3C-GCP3(1–240)/ALFA-MZT1 complex (X. laevis) (UniProt O73787); assay: mass photometry; Refeyn TwoMP; purified NEDD1-N-GCP3/MZT1 diluted to a final concentration below 40 nM; tetramer of the fusion/MZT1 protomer
[2] = target: the molecule itself; assay: cryo-EM structure; single particle analysis of the native γ-TuRC affinity-purified from X. laevis egg extract; particles with stoichiometric NEDD1/N-GCP3/MZT1 grapnel; AlphaFold2 models flexibly fitted (MDFF) into the density
[3] = target: T1, human Augmin TII N-clamp with HAUS8∆[1-138] (human, UniProt Q9NVX0 1-118; Q7Z4H7 1-269; Q99871 1-299; Q9BT25 139-248); assay: pull-down; 25 μg recombinant EGFP-tagged Augmin TII N-clamp∆H8N added to lysate of HEK293 cells overexpressing POC5-HA or POC5^mut-HA, captured on GFP binder beads, 1 hr 4 °C; 50 mM Tris pH 7.5, 150 mM NaCl; HA blot; settings: one partner purified
T1 construct: HAUS2, human, codons 1 to 118; HAUS6, human, codons 1 to 269; HAUS7, human, codons 1 to 299, followed by a TEV-EGFP-8xHis cleavable tag; HAUS8, human, codons 1 to 248 with the N-terminal truncation HAUS8∆[1-138]; The range 139-248 of HAUS8 is worked out from the printed limits 1 to 248 and the deletion 1-138; also called Augmin N-clamp; Augmin TII N-clamp∆H8N; source: E. coli BL21 CodonPlus-RIL, …
T1 sequence (Q9NVX0 1-118, chain 1 of 4): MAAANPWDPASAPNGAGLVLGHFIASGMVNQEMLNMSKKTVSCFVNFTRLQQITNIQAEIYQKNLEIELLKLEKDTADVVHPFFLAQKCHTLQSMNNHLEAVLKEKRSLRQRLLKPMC
T1 sequence (Q7Z4H7 1-269, chain 2 of 4): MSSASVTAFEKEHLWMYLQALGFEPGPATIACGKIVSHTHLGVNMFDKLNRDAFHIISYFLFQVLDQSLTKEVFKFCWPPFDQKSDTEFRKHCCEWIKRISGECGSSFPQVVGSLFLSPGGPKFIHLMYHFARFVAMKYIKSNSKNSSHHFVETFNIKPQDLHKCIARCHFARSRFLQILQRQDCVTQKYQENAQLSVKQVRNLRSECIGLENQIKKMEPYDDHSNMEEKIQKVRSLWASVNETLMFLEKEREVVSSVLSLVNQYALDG
T1 sequence (Q99871 1-299, chain 3 of 4): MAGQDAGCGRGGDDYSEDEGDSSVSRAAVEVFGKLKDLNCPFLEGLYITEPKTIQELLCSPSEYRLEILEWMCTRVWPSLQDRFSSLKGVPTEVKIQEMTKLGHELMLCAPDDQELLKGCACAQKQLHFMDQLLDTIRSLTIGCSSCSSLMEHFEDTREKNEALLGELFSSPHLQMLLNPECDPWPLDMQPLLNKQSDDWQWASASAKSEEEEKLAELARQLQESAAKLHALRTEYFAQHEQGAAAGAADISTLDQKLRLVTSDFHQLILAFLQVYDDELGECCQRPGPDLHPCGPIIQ
T1 sequence (Q9BT25 139-248, chain 4 of 4): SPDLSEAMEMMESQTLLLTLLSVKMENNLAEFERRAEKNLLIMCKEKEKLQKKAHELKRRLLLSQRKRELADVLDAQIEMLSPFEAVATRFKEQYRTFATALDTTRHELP

stoichiometry N [1]: 4
Molecule: X. laevis 2×FLAG-TEV-NEDD1-3C-GCP3(1–240)/ALFA-MZT1 complex (from UniProt O73787 1-240; Q5U4M5 1-72)

B1: NEDD1 (neural precursor cell expressed, developmentally down-regulated 1), X. laevis, endogenous (natural protein, X. laevis (endogenous in egg extract), UniProt A0A8J0Q0Y8 1-671, looked up)
chain: MESRGGGGRVRLPGTTMQDNIRFVSAGDDVKIWDYSSMTTVEQFNPHSASHPVSSLCWSSNNHFLVTASGSGDKIVVSSCKSKPVPLLELAEGKKQTCVNLNSSSQYVVSGGLDNTVNIWDLKSKRLHRSLKDHKDEVTCVTFNANDCYVASGSMSGEIILHNVTTNLSSTPFGHGSSQPIRHLKYSYVKKSLLGTVSDSGSVTLWDANSQNPYHVFESAHKAPASGICFSPVNDLLLVTVGLDKRIICYDVSSKILLQTVVAESPLTAVDFMPDGATLAVGSSRGKIYLYDLRMLSSPVKTVSAHKTSVQCIQFQHSNIYKSSKGPSSKSSILSTAVNKKPSTKTAAGGTQSANITKDLPPSAISSLPQPVMPVDSKVLRVNDDKSGFPRSTSLDIIPSKETDFAKTSDYKSIDSFGRSSLGDIFSPVRDDASHFRGAEDLSCKGNDLDYLPQFSTIPSSRRNPVGANTQGIHGSPLHLIIESPIKEEDESQDSELKTRKPQLLKQDFRESSSKPASVDQNNLNNSPINSVTRTPEAIEKTGHQILSQLKSDVPAHGTKIASPKVAATMSTQLASSLSEKIADTLASDRTGAPLTAIQINFIKNMIEETLDDFREACHRDIVNLQVEMIKQFHIQSSEIQMLLERYSLNESLVSEIEKLREENKRLRANF
notes: NEDD1, X. laevis, endogenous; NM_001094388.1 is printed for the cDNA of the recombinant constructs; also called NEDD1^C (its C-terminus); source: endogenous, X. laevis egg extract; co-purified with the γ-TuRC
stoichiometry N [2]: 4

fold reduction against wild-type [3]: 3 fold
B2: POC5^mut-HA (S224E, R227A, K228A, V231A, S234K, L235A) (natural protein, human, UniProt Q8NA72 1-575, looked up)
chain: MSSDEEKYSLPVVQNDSSRGSSVSSNLQEEYEELLHYAIVTPNIEPCASQSSHPKGELVPDVRISTIHDILHSQGNNSEVRETAIEVGKGCDFHISSHSKTDESSPVLSPRKPSHPVMDFFSSHLLADSSSPATNSSHTDAHEILVSDFLVSDENLQKMENVLDLWSSGLKTNIISELSKWRLNFIDWHRMEMRKEKEKHAAHLKQLCNQINELKELQKTFEIEIGAADEAISKASHAIGKQKEKIELMRTFFHWRIGHVRARQDVYEGKLADQYYQRTLLKKVWKVWRSVVQKQWKDVVERACQARAEEVCIQISNDYEAKVAMLSGALENAKAEIQRMQHEKEHFEDSMKKAFMRGVCALNLEAMTIFQNRNDAGIDSTNNKKEEYGPGVQGKEHSAHLDPSAPPMPLPVTSPLLPSPPAAVGGASATAVPSAASMTSTRAASASSVHVPVSALGAGSAATAASEEMYVPRVVTSAQQKAGRTITARITGRCDFASKNRISSSLAIMGVSPPMSSVVVEKHHPVTVQTIPQATAAKYPRTIHPESSTSASRSLGTRSAHTQSLTSVHSIKVVD
notes: POC5, human, with six point mutations in the predicted POC5-Augmin interface; source: HEK293 (Tet-On 3G), overexpressed, in lysate; not shown: HA, C-terminal, kept
